# Reference: patent US11167035B2, “Insulin compositions and method of making a composition” (Novo Nordisk A/S, priority 2005, dated 2021)
# Test: SEC on Superose 6 PC, insulin self association
# Assay type: physicochemical
# Details: 600 μM insulin
# Experimental: Analysis by size exclusion chromatography (SEC) on a Superose 6 PC column (0.32*30 cm) using isotonic 10 mM tris-buffered saline optionally added 2 mM phenol at 37° C. and pH 7.3, injection volume of 20 μL, flow of 0.05 mL/min and run time 130 min. First reference of Blue dextran (>>5 MDa, KAV 0.0), Thyroglobulin (669 kDa, KAV 0.28), Ferritin (440 kDa, KAV 0.39), Ovalbumin (44.5 kDa, KAV 0.56), Ribonuclease (13.7 kDa, KAV 0.69) and a second reference of Albumin (66 kDa, KAV 0.53), Co(III)insulin-hexamer (35 kDa, KAV 0.61), and monomeric insulin X2 (6 kDa, KAV 0.73). Retention time of blue dextran was 17.9 min (to) and 0.74 min without column (td), and retention time of albumin (HSA) was about 34.1 min, KAV=(t−t0)/(V/f+td−t0) with
# KAV area peak1 is measured from KAV=0 to KAV=0.46 (32 min) as relative area % of total area for KAV<0.46 corresponding to self association larger than albumin. For KAV peak 1 about 0.56 (albumin size) integration cut is between albumin size and insulin hexamer size.
# For SEC method without phenol in eluent peak1 contain associated forms larger than albumin and peak2 contain dihexameric, hexameric, dimeric and monomeric forms of insulin.
# For SEC method including 2 mM phenol in the eluent peak1 contain dihexameric and other larger forms of insulin and peak2 contain hexameric, dimeric and monomeric forms of insulin.
# The formulations were studied after storage 2 week at 37C compared to storage at 5C by the SEC method described in example 4 using an eluent with 2 mM phenol. Reference formulations without citrate at 3, 5 and 6 Zn/6ins.deriv. were included.
Substance,Kav 2 Zn peak 1 (2 zinc/hexamer),Relative area % peak 1 (2 zinc/hexamer) [%],Kav 6 Zn peak 1 (6 zinc/hexamer),Relative area % peak 1 (6 zinc/hexamer) [%]
B29Nε-(2-{[(2-Carboxy-ethyl)-(15-carboxy-pentadecanoyl)-amino]-methyl}-benzoyl) desB30 human insulin,0.16,54,0.03,93
B29Nε-(4-{[(2-Carboxy-ethyl)-(14-carboxy-tetradecanoyl)-amino]-methyl}-benzoyl) desB30 human insulin,0.09,55,0.00,96
B29Nε-(4-{[(2-Carboxy-ethyl)-(15-carboxy-pentadecanoyl)-amino]-methyl}-benzoyl) desB30 human insulin,0.01,84,0.00,98
B29Nε-[(5-{[(2-Carboxy-ethyl)-(15-carboxy-pentadecanoyl)-amino]-methyl}-furan-2-carbonyl) desB30 human insulin,0.02,81,0.03,96
B29Nε-hexadecandioyl-gamma-Glu-(3-(2-{2-[2-(2-amino-ethoxy)-ethoxy]-ethoxy}-ethoxy)-propionyl desB30 human insulin,0.09,79,0.06,89
